Consider three molecules from article PMC6736767.

Where two headings read alike, the source gives them in different places.

The target in data set [1] is T1, BpuR (Borrelia burgdorferi, UniProt O51076 1-122).
T1 sequence: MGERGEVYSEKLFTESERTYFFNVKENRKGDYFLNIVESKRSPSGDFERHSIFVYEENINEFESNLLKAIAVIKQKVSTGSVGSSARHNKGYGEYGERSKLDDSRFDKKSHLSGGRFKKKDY
As to the kind of experiment: EMSA.

The target of data set [2] is T1, BpuR. The data set is described as follows: EMSA. The source holds these as a separate data set.

B1: sodA1 (ssRNA)
RNA: AAUGAGCCUUGUUAUUGUGGAAGUGGGAAGAAAUAUAAAAAUUGUCAUGGCAAAAGUUA
For the molecule B1, the binding result with BpuR [1] is “binds”.

B2: sodA2 (ssRNA)
RNA: UCAUGGCAAAAGUUAAAACAGGAGGUUUUUAUGUUUAAGCUGCCAGAACUUGGUUAUGAU
B2: the binding result with BpuR [2] is recorded as “no binding”.

B3: bpuR RNA (ssRNA)
RNA: ACGUUAAAUGUAGUCAAGUACAAAAACUUGUGUGGAGGAAAUUGAUGGGAGAGAGAGGGGAAGUAUACU
For B3, the binding result with BpuR [1] was “binds”.
